Reference: US7208311B2, “Catalytic domain of ADAM33 and methods of use thereof” (Schering Corporation, priority 2002, dated 2007)
Residue numbers refer to the chain shown, from its start. Numbers in names are those of the source. Values belong to the molecule of their own block, whether it stands above or below them.

Legend:
ADAM33 [1] = target: T1, ADAM33 (Homo sapiens, UniProt Q9BZ11); assay: MCF 12-mer peptide proteolysis assay (HPLC); type: biochemical; conditions: for ADAM33 activity in the presence of inhibitor: 1 mM inhibitor
T1 construct: made in house; host or cells: Drosophila melanogaster S2 cells
T1 sequence (Q9BZ11 204-409): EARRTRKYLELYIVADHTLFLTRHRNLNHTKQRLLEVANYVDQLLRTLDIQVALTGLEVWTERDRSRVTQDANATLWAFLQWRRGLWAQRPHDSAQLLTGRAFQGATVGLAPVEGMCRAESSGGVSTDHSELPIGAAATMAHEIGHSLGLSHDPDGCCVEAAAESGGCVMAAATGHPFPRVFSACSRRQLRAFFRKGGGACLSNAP
Protocol: A 12-mer peptide (i.e. Ac-LPPVAASSLNRD-NH2; SEQ ID NO: 48), derived from human mast-cell growth factor (accession number NP-038626) was synthesized as a substrate for ADAM33. Reactions were initiated by addition of 200 nM enzyme to appropriate amounts of substrate in assay buffer (25 mM HEPES, pH 7.5, 0.5 M NaCl, 0.1% n-octyl-β-D-glucoside), incubated at 22° C. for 2 h and subsequently quenched with 1% TFA. When inhibitors were evaluated, the enzyme and inhibitors were preincubated at 22° C. for 30 min prior to initiation of the assays. Substrate and products were separated by HPLC using a C-8 reverse phase column (Zobrax 3.5 μm, 4.6 mmD/5 cmL, Agilent, Palo Alto, Calif., 0.1% TFA acetonitrile/H2O). Elution was monitored at 214 nm, and peaks identified by mass spectroscopy. Initial rates of proteolysis were determined using reactions in which less than 10% of the substrate was consumed. kcat/Km values were calculated assuming the enzymes were 100% active.
Production of ADAM33 and mutants thereof were produced essentially as described in Example 1. Proteolytic assays and methods for determining catalytic rates are essentially as described in Examples 2 and 3.

ADAM33 [2] = target: T1, ADAM33; assay: HPLC inhibition assay, ADAM33cat with KL-1 peptide substrate; type: biochemical; conditions: ADAM33cat 80 nM, KL-1 peptide 100 μM, 2 h RT
Protocol: The inhibition dissociation constants (Ki) for inhibitors were determined as follows: an HPLC assay was performed in the presence or absence of inhibitors for 2 h at RT using ADAM33cat (80 nM) and KL-1 peptide substrate (100 μM). For testing tissue inhibitor of metalloproteinases (TIMPs), ADAM33 and human TIMPs were pre-incubated for 1 h at RT. […] Initial velocities were calculated by dividing cleaved product over reaction time. The initial velocities were plotted as a function of inhibitor concentration. For tight binding inhibitors (IK682, TIMP-3), the apparent inhibitor dissociation constants (Ki app values) were calculated by fitting the curve to the following modified Morrison's equation: vi=vo{[(Eo−Io−Ki^app)^2+4 Ki^appEo]^1/2+(Eo−IoKI^app)}/2Eo where Ki^app=Ki(1+S/Km), vo is the uninhibited initial velocity, vi is the initial velocity in the presence of inhibitor at any given inhibitor concentration Io, and Eo is initial enzyme concentration. When the substrate concentration S<<Km, Ki^app is approximately equal to Ki.

ADAM33 [3] = target: T1, ADAM33; assay: HPLC peptide substrate cleavage assay with ADAM33; type: biochemical; conditions: for cleavage site of peptide: identified by MALDI-TOF MS; for cleavage of peptide by ADAM33: peptide 50 μM, ADAM33 0.1–0.5 μM, 2 h RT
Protocol: (§1) The peptide substrate (50 μM) was incubated with or without ADAM33 (0.1–0.5 μM) in assay buffer (20 mM HEPES, pH 7.5, 0.5 M NaCl, 0.2 mg/ml bovine serum albumin (BSA)) for 2 hours (h) at room temperature (RT) in the presence or absence of various inhibitors [5 mM 1, 10-phenanthroline, or a protease inhibitor cocktail (2 μg/ml leupeptin, 0.4 μM benzamidine, 10 μg/ml soybean trypsin inhibitor and 0.5 mM iodoacetamide)]. The reaction was stopped by adding 10% trifluoroacetic acid (TFA) to a final concentration of 1% and samples were analyzed on Agilent HPLC model 1100 with C8 column. Solvents were: A, 0.1% TFA in water; B, 0.09% TFA in acetonitrile. A linear gradient from 2 to 42% B was run over 7 min at 1.5 ml/min and the eluate was monitored at 214 nm. The percentage of peptide cleavage was calculated using the peak area of the cleaved products divided by the sum of the peak areas of both the products and the remaining substrate. The cleavage sites of the peptide were identified by matrix-assisted laser-desorption/ionization time-of-flight (MALDI-TOF) mass spectrometry.
(§2) Specificity constants of peptide substrates, APP and KL-1, were obtained by using the HPLC assay described above. In brief, ADAM33cat (80 nM) was incubated with peptide substrate (30–2000 μM) in assay buffer for 10–60 min at RT. Reactions were timed to allow less than 15% turnover of the substrate. The initial cleavage velocities of the peptides were obtained by plotting cleaved product versus reaction time. The specificity constants, kcat/Km, were determined based on best fit of the data with the Michaelis-Menten equation when substrate concentration S<<Km.

[4] = substrate: CC(C)C[C@H](NC(=O)[C@H](CCCCN)NC(=O)[C@H](CCC(N)=O)NC(=O)[C@H](Cc1c[nH]cn1)NC(=O)[C@H](Cc1c[nH]cn1)NC(=O)[C@@H](NC(=O)[C@H](CCC(=O)O)NC(=O)[C@@H](N)Cc1ccc(O)cc1)C(C)C)C(=O)N[C@H](C(=O)N[C@@H](Cc1ccccc1)C(=O)O)C(C)C; assay: HPLC peptide substrate cleavage assay with ADAM33; type: biochemical, human; conditions: other: ADAM33cat 80 nM, turnover <15%; pH 7.5
Protocol: as §1, §2

[5] = substrate: CC(C)C[C@H](NC(=O)[C@H](CO)NC(=O)[C@H](CO)NC(=O)[C@H](C)NC(=O)[C@H](C)NC(=O)[C@@H](NC(=O)[C@@H]1CCCN1C(=O)[C@@H]1CCCN1)C(C)C)C(=O)N[C@@H](CCCNC(=N)N)C(=O)N[C@@H](CC(N)=O)C(=O)O; assay: HPLC peptide substrate cleavage assay with ADAM33; type: biochemical, human; conditions: other: ADAM33cat 80 nM, turnover <15%; pH 7.5
Protocol: as §1, §2

[6] = Thermal denaturation monitored by circular dichroism (220 nm); type: physicochemical
Protocol: The effect of CaCl2 on the stability of the ADAM33 N231Q catalytic domain as determined by thermal denaturation: The effect of the concentration of CaCl2 on the retention of the secondary structure of the ADAM33 N231 Q catalytic domain was monitored by circular dichroism (λ220 nm) as a function of temperature. A parallel study was performed replacing the CaCl2 with NaCl to control for the effect of the corresponding increase in ionic strength. The ADAM33 N231Q catalytic domain was purified as described above and then diluted to 0.2 mg/ml. The sample was then dialyzed against 25 mM Hepes, pH 7.5, 5% glycerol overnight. The temperature dependent protein denaturation was performed using a JASCO 810 spectropolarimeter under the following conditions: • Protein concentration: 0.2 mg/ml (based on a BioRad Protein Assay) • Cell length: 0.1 cm • Monitor wavelength: 220 nm • Temperature slope: 2° C./min • Measurement range: 20–80° C.

Molecule: O=C(O)CN(CCN(CC(=O)O)CC(=O)O)CC(=O)O [EDTA]
ADAM33 activity in the presence of inhibitor (ADAM33 [1]): completely abolished

Molecule: TRANCE: peptide substrate VGSQHIRAEK; SEQ ID NO: 44 (TRANCE Peptide)
cleavage site of peptide (ADAM33 [3]): H*I
cleavage of peptide by ADAM33 (ADAM33 [3]): cleaved

Molecule: CC(C)CC(CC(=O)NO)C(=O)N[C@H](C(=O)N[C@@H](C)C(=O)NCCN)C(C)(C)C (mixture of isomers) [Immunex compound 1, N-{DL-[2-(hydroxyamino-carbonyl)methyl]4-methylpentanoyl}-L-3-(tertbutyl)glycyl-L-alanine,2-aminoethylamide]
Ki (ADAM33 [2]): 2850 ± 152 nM

B1: CAT domain: purified catalytic (protease) domain of human ADAM33 (protein)
chain: EARRTRKYLELYIVADHTLFLTRHRNLNHTKQRLLEVANYVDQLLRTLDIQVALTGLEVWTERDRSRVTQDANATLWAFLQWRRGLWAQRPHDSAQLLTGRAFQGATVGLAPVEGMCRAESSGGVSTDHSELPIGAAATMAHEIGHSLGLSHDPDGCCVEAAAESGGCVMAAATGHPFPRVFSACSRRQLRAFFRKGGGACLSNAPSGHHHHHH
catalytic efficiency (ADAM33 [1]; MCF peptide substrate, estimated): 2.6±0.5)×10^2 M^−1 s^−1

B2: ADAM33 (Homo sapiens) (protein)
chain: T1 sequence (Q9BZ11 204-409)
notes: made in house; host or cells: Drosophila melanogaster S2 cells
Km [4]: 1.0 ± 0.1 mM
kcat [4]: 0.2 ± 0.1 s⁻¹
kcat/Km [4]: (1.6±0.3)×10^2 M^−1 s^−1
Km [5]: 3.0 ± 0.1 mM
kcat [5]: 0.7 ± 0.1 s⁻¹
kcat/Km [5]: (2.6±0.5)×10^2 M^−1 s^−1

B3: ADAM33 N231Q: modified ADAM33 catalytic domain N231Q, SEQ ID NO: 8 with C-terminal Ser-Gly His6 Tag (protein)
chain: T1 sequence (Q9BZ11 204-409) with N28Q
modifications: C-terminal Ser-Gly His6 tag; homo sapiens
Denaturation Temp. ([6]; CaCl2 0 mM): 43.5 °C
ΔDenaturation Temp. ([6]; CaCl2 0 mM): 0.0 °C
Denaturation Temp. ([6]; CaCl2 0.003 mM): 50.6 °C
ΔDenaturation Temp. ([6]; CaCl2 0.003 mM): 7.1 °C
Denaturation Temp. ([6]; CaCl2 0.03 mM): 52.9 °C
ΔDenaturation Temp. ([6]; CaCl2 0.03 mM): 9.4 °C
Denaturation Temp. ([6]; CaCl2 0.3 mM): 53.9 °C
ΔDenaturation Temp. ([6]; CaCl2 0.3 mM): 10.4 °C
Denaturation Temp. ([6]; CaCl2 0.5 mM): 56.9 °C
ΔDenaturation Temp. ([6]; CaCl2 0.5 mM): 13.4 °C
Denaturation Temp. ([6]; CaCl2 1.0 mM): 57.9 °C
ΔDenaturation Temp. ([6]; CaCl2 1.0 mM): 14.4 °C
Denaturation Temp. ([6]; CaCl2 2.5 mM): 60.6 °C
ΔDenaturation Temp. ([6]; CaCl2 2.5 mM): 17.1 °C
Denaturation Temp. ([6]; CaCl2 5.0 mM): 61.5 °C
ΔDenaturation Temp. ([6]; CaCl2 5.0 mM): 18.0 °C
Denaturation Temp. ([6]; CaCl2 10.0 mM): 63.3 °C
ΔDenaturation Temp. ([6]; CaCl2 10.0 mM): 19.8 °C
Denaturation Temp. ([6]; CaCl2 25.0 mM): 64.6 °C
ΔDenaturation Temp. ([6]; CaCl2 25.0 mM): 21.1 °C
Denaturation Temp. ([6]; CaCl2 50.0 mM): 65.6 °C
ΔDenaturation Temp. ([6]; CaCl2 50.0 mM): 22.1 °C
Denaturation Temp. ([6]; CaCl2 100.0 mM): 65.2 °C
ΔDenaturation Temp. ([6]; CaCl2 100.0 mM): 21.7 °C

More lines, main results first:

Ki (ADAM33 [2]): 157 ± 38 nM
Molecule: CNC(=O)[C@@H](NC(=O)[C@H](CC(C)C)[C@H](O)C(=O)NO)C(C)(C)C [Marimastat, N4-[2,2-dimethyl-1(S)-[(methylamino)carbonyl]propyl]-N1,2(S)-dihydroxy-3(R)-(2-methylpropyl) butanediamide]

cleavage site of peptide (ADAM33 [3]): A*L
cleavage of peptide by ADAM33 (ADAM33 [3]): cleaved
Molecule: insulin B chain: peptide substrate HLVEALYLVC; SEQ ID NO: 45 (insulin B chain peptide)

ADAM33 activity in the presence of inhibitor (ADAM33 [1]): completely abolished
Molecule: c1cnc2c(c1)ccc1cccnc12 [1,10-phenanthroline]

Km (ADAM33 [1]; 200 nM enzyme, 10–500 μM substrate, room temperature): > 500 µM
Molecule: Ac-LPPVAASSLNRD-NH2 [MCF substrate peptide]
cleavage site of MCF peptide by wild-type ADAM33 (ADAM33 [1]): between the residues corresponding to Ala-190 and Ser-191
